# From PMC9048407 (Molecular microbiology, 2021)
# Key:
# [1] = target: BirA′ (protein encoded by Clostridium acetobutylicum gene Ca 0212), purified (Clostridium acetobutylicum (strain ATCC 824)); assay: SEC
# BplA (Ca 0589) = target: T1, BplA (Ca 0589) (Clostridium acetobutylicum, UniProt Q97LH2); assay: TLC of […]Bio-5′-AMP; format: biochemical; details: 25 uM biotin, 5 uM ATP, 5.5 mM MgCl2, pH 8.0, room temperature; acceptor B. subtilis AccB-86
# T1 sequence (Q97LH2 1-270): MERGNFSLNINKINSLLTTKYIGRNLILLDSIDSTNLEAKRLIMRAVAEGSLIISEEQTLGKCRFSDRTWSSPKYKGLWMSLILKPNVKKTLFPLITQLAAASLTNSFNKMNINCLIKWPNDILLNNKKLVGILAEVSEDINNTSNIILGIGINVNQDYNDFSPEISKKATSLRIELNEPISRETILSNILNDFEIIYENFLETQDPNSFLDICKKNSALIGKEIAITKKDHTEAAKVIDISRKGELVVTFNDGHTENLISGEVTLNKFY
stoichiometry N [1],Compound,TLC of [32P]Bio-5′-AMP; AccB-86 native gel shift; MS/MS of product (BplA (Ca 0589))
2,"BirA′ (protein encoded by Clostridium acetobutylicum gene Ca 0212), purified (natural protein)",–
–,O=C(O)CCCC[C@@H]1SC[C@@H]2NC(=O)N[C@@H]21 [biotin],"In reactions with BplA, formation of the Bio-5′-AMP intermediate was detected upon biotin addition"
